From paper PMC2957524

Test system: O=C(O)C(=O)CC1(C(=O)O)C=CC(O)C=C1
Assay: purified protein
Assay type: biochemical, Planktothrix agardhii
Settings: non-aromatizing decarboxylation to endocyclic diene H2HPP

“AerD (Planktothrix agardhii NIVA-CYA 126/8)” was tested, and the Km was 170 ± 3 µM and the kcat was 4.08 ± 0.017 s⁻¹.
